Results taken from US5925558.

Legend:
[1] = target: GFP N-terminal phosphorylation mutant 1MRRRRSII (Aequorea victoria)
[2] = target: GFP N-terminal phosphorylation mutant -2… (Aequorea victoria)
[3] = target: GFP N-terminal phosphorylation mutant 1MSRRRRSI (Aequorea victoria)
[4] = target: GFP N-terminal phosphorylation mutant -3… (Aequorea victoria)
[5] = target: GFP N-terminal phosphorylation mutant -1… (Aequorea victoria)
[6] = target: GFP N-terminal phosphorylation mutant 1MRRESLLF (Aequorea victoria); conditions: scale: relative rate
[7] = target: GFP N-terminal phosphorylation mutant 1MRKGSLLF (Aequorea victoria); conditions: scale: relative rate
[8] = target: GFP N-terminal phosphorylation mutant 1MRKGSCLF (Aequorea victoria); conditions: scale: relative rate
[9] = target: GFP N-terminal phosphorylation mutant 1MSRRDSCF (Aequorea victoria); conditions: scale: relative rate
[10] = target: GFP N-terminal phosphorylation mutant 1MRRDSCLF (Aequorea victoria); conditions: scale: relative rate
[11] = target: GFP N-terminal phosphorylation mutant 1MSKRRDSL (Aequorea victoria); conditions: scale: relative rate
[12] = target: wild-type Aequorea green fluorescent protein (Aequorea victoria); conditions: scale: relative rate
[13] = target: GFP phosphorylation mutant 68RRFSA (Aequorea victoria); conditions: scale: relative rate
[14] = target: GFP phosphorylation mutant 214KRDSM (Aequorea victoria); conditions: scale: relative rate
[15] = target: GFP phosphorylation mutant 172RRGSV (Aequorea victoria); conditions: scale: relative rate
[16] = target: GFP phosphorylation mutant 25RRFSV (Aequorea victoria); conditions: scale: relative rate
[17] = target: GFP phosphorylation mutant 155KRKSGI (Aequorea victoria); conditions: scale: relative rate

Substance “protein kinase A catalytic subunit (enzyme)” has a % Change in fluorescence upon phosphorylation [1] of 70%, a % Change in fluorescence upon phosphorylation [2] of 15% and a % Change in fluorescence upon phosphorylation [3] of 40%. It also gave a % Change in fluorescence upon phosphorylation [4] of 70%, a % Change in fluorescence upon phosphorylation [5] of 43% and a Relative rates of phosphorylation (32P incorporation) [6] of 3. For the same substance, the Relative rates of phosphorylation (32P incorporation) [7] was 1.6, the Relative rates of phosphorylation (32P incorporation) [8] was 5.1 and the Relative rates of phosphorylation (32P incorporation) [9] was 2.1. For the same substance, the Relative rates of phosphorylation (32P incorporation) [10] was 3.7, the Relative rates of phosphorylation (32P incorporation) [11] was 5.5 and the Relative rates of phosphorylation (32P incorporation) [12] was 1. It also gave a Relative rates of phosphorylation (32P incorporation) [13] of 0.6, a Relative rates of phosphorylation (32P incorporation) [14] of 1.88 and a Relative rates of phosphorylation (32P incorporation) [15] of 1.57. The Relative rates of phosphorylation (32P incorporation) [16] was 1.75 and the Relative rates of phosphorylation (32P incorporation) [17] was 2.5.
